In the RNAGym collection of RNA variant scans (doi:10.7554/elife.90254) one finds self-cleavage data, which are given here for 56 variants.

B1: LINE1-mini (parent)
chain: GGCAGAGCUCAACACAGCGUGGCAAAGUGGCUGUGGCUAGACUGCC

In the series the parent is B1. The experiment in a line: self-cleavage, relative activity (ratio to wild type); higher = more cleavage; in vitro, sequencing; the parent is a self-cleaving ribozyme.
For GACAGAGCUCAACACAGCGUGGCAAAGUGGCUGUCGCUAGACUGCC [G2A G35C], the self-cleavage turned out to be 0.34. On to GACAGAGCUCAACACAGCGUGGCAAAGUGGCUGUUGCUAGACUGCC [G2A G35U], for which the self-cleavage turned out to be 0.41. Take GACAGAGCUCAACACAGCGUGGCAAAGUGGCUGUAGCUAGACUGCC [G2A G35A]: the self-cleavage was 0.26. Regarding GACAGAGCUCAAAACAGCGUGGCAAAGUGGCUGUGGCUAGACUGCC [G2A C13A], the self-cleavage was found to be 0.36.

As for GACAGAGCUCAAUACAGCGUGGCAAAGUGGCUGUGGCUAGACUGCC [G2A C13U], the self-cleavage is 0.32. The value for GACAGAGCUCAAGACAGCGUGGCAAAGUGGCUGUGGCUAGACUGCC [G2A C13G] was 0.45. Take GACAGAGCUCAACACAGCGUGGCAAAGUGGCUGUGGCUAAACUGCC [G2A G40A]: the self-cleavage stood at 0.35. Turning to GACAGAGCUCAACACAGCGUGGCAAAGUGGCUGUGGCUAUACUGCC [G2A G40U], the self-cleavage was 0.29.

With GACAGAGCUCAACACAGCGUGGCAAAGUGGCUGUGGCUACACUGCC [G2A G40C], the self-cleavage came to 0.12. GCCAGAGCUCAACACAGCGUGGCAAAGUGGCUGUGGCUAGACUGCC [G2C]: the self-cleavage is 0.13. GACAGAGCUCAACACAGCGUGGCAAAGUAGCUGUGGCUAGACUGCC [G2A G29A]: the self-cleavage was determined as 0.61. Consider GACAGAGCUCAACACAGCGUGGCAAAGUUGCUGUGGCUAGACUGCC [G2A G29U], for which the self-cleavage came out at 0.9.

On to GACAGAGCUCAACACAGCGUGGCAAAGUCGCUGUGGCUAGACUGCC [G2A G29C], for which the self-cleavage was 0.65. Turning to GCCAGAGCUCAACACCGCGUGGCAAAGUGGCUGUGGCUAGACUGCC [G2C A16C], the self-cleavage was 0.02. GCCAGAGCUCAACACUGCGUGGCAAAGUGGCUGUGGCUAGACUGCC [G2C A16U]: the self-cleavage is 0.04. Regarding GCCAGAGCUCAACACGGCGUGGCAAAGUGGCUGUGGCUAGACUGCC [G2C A16G], the self-cleavage came to 0.09. The value for GACAGAGCUCAACACAGCGUGGCAAAGUGUCUGUGGCUAGACUGCC [G2A G30U] was 1.4; that for GACAGAGCUCAACACAGCGUGGCAAAGUGCCUGUGGCUAGACUGCC [G2A G30C] was 0.51; that for GACAGAGCUCAACACAGCGUGGCAAAGUGACUGUGGCUAGACUGCC [G2A G30A] was 1.67.

On to GCCAGAGCUCCACACAGCGUGGCAAAGUGGCUGUGGCUAGACUGCC [G2C A11C], for which the self-cleavage was found to be 0.02. As to GCCAGAGCUCGACACAGCGUGGCAAAGUGGCUGUGGCUAGACUGCC [G2C A11G], the self-cleavage amounted to 0.02.

As to GCCAGAGCUCUACACAGCGUGGCAAAGUGGCUGUGGCUAGACUGCC [G2C A11U], the self-cleavage stood at 0.03. On to GCCAGAGCUCAACACAGCGUGGCCAAGUGGCUGUGGCUAGACUGCC [G2C A24C], for which the self-cleavage worked out at 0.06. In the case of GACAGAGCUCAACACAGCGUAGCAAAGUGGCUGUGGCUAGACUGCC [G2A G21A], the self-cleavage is 2.98. As for GACAGAGCUCAACACAGCGUUGCAAAGUGGCUGUGGCUAGACUGCC [G2A G21U], the self-cleavage was 0.89.

In the case of GACAGAGCUCAACACAGCGUCGCAAAGUGGCUGUGGCUAGACUGCC [G2A G21C], the self-cleavage was found to be 0.46.

For the variant GACAGAGCUCAACACAGCGAGGCAAAGUGGCUGUGGCUAGACUGCC [G2A U20A], the self-cleavage is 0.88. In the case of GACAGAGCUCAACACAGCGGGGCAAAGUGGCUGUGGCUAGACUGCC [G2A U20G], the self-cleavage is 0.36.

Turning to GACAGAGCUCAACACAGCGCGGCAAAGUGGCUGUGGCUAGACUGCC [G2A U20C], the self-cleavage was determined as 0.48. Regarding GACAGAGCUCAACACAGCGUGGCAAAGUGGCUGUGCCUAGACUGCC [G2A G36C], the self-cleavage was found to be 0.28. Take GACAGAGCUCAACACAGCGUGGCAAAGUGGCUGUGUCUAGACUGCC [G2A G36U]: the self-cleavage worked out at 0.19. Regarding GACAGAGCUCAACACAGCGUGGCAAAGUGGCUGUGACUAGACUGCC [G2A G36A], the self-cleavage was determined as 0.69. For the variant GACAGAGCUCAACACAGCGUGGCAAAGUGGCUGUGGAUAGACUGCC [G2A C37A], the self-cleavage was found to be 0.35. For the variant GACAGAGCUCAACACAGCGUGGCAAAGUGGCUGUGGUUAGACUGCC [G2A C37U], the self-cleavage stood at 0.28. GACAGAGCUCAACACAGCGUGGCAAAGUGGCUGUGGGUAGACUGCC [G2A C37G]: the self-cleavage worked out at 0.13. Regarding GACAGAGCUCAACACAGCGUGGCAAAGUGGGUGUGGCUAGACUGCC [G2A C31G], the self-cleavage amounted to 0.14. To GACAGAGCUCAACACAGCGUGGCAAAGUGGUUGUGGCUAGACUGCC [G2A C31U] belongs 0.25.

Take GACAGAGCUCAACACAGCGUGGCAAAGUGGAUGUGGCUAGACUGCC [G2A C31A]: the self-cleavage came to 0.23. On to GACAGAGCUCAACACAGCGUGGCAAAGGGGCUGUGGCUAGACUGCC [G2A U28G], for which the self-cleavage was determined as 0.48. To GACAGAGCUCAACACAGCGUGGCAAAGAGGCUGUGGCUAGACUGCC [G2A U28A] belongs 0.32.

On to GACAGAGCUCAACACAGCGUGGCAAAGCGGCUGUGGCUAGACUGCC [G2A U28C], for which the self-cleavage amounted to 0.64. GACAGAGCUCAACACAGCGUGGCAAAGUGGCUAUGGCUAGACUGCC [G2A G33A]: the self-cleavage was 0.2. For the variant GACAGAGCUCAACACAGCGUGGCAAAGUGGCUCUGGCUAGACUGCC [G2A G33C], the self-cleavage came to 0.05. As to GACAGAGCUCAACACAGCGUGGCAAAGUGGCUUUGGCUAGACUGCC [G2A G33U], the self-cleavage turned out to be 0.13. As for GCCAGUGCUCAACACAGCGUGGCAAAGUGGCUGUGGCUAGACUGCC [G2C A6U], the self-cleavage was found to be 0.14.

GCCAGCGCUCAACACAGCGUGGCAAAGUGGCUGUGGCUAGACUGCC [G2C A6C]: the self-cleavage came to 0.12. With GCCAGGGCUCAACACAGCGUGGCAAAGUGGCUGUGGCUAGACUGCC [G2C A6G], the self-cleavage is 0.07. The value for GACAGAGCUGAACACAGCGUGGCAAAGUGGCUGUGGCUAGACUGCC [G2A C10G] was 0.11; that for GACAGAGCUUAACACAGCGUGGCAAAGUGGCUGUGGCUAGACUGCC [G2A C10U] was 0.41. Regarding GACAGAGCUAAACACAGCGUGGCAAAGUGGCUGUGGCUAGACUGCC [G2A C10A], the self-cleavage is 0.07. For GACAGAACUCAACACAGCGUGGCAAAGUGGCUGUGGCUAGACUGCC [G2A G7A], the self-cleavage was determined as 0.86.

Turning to GACAGAUCUCAACACAGCGUGGCAAAGUGGCUGUGGCUAGACUGCC [G2A G7U], the self-cleavage was 0.17. Regarding GACAGACCUCAACACAGCGUGGCAAAGUGGCUGUGGCUAGACUGCC [G2A G7C], the self-cleavage was determined as 0.39. Turning to GACAGAGCUCAACACAUCGUGGCAAAGUGGCUGUGGCUAGACUGCC [G2A G17U], the self-cleavage is 0.19. With GACAGAGCUCAACACAACGUGGCAAAGUGGCUGUGGCUAGACUGCC [G2A G17A], the self-cleavage was 0.2. On to GACAGAGCUCAACACACCGUGGCAAAGUGGCUGUGGCUAGACUGCC [G2A G17C], for which the self-cleavage was determined as 0.32.
